Experimental findings from PMC5698293, “Single-molecule visualization of conformational changes and substrate transport in the vitamin B12 ABC importer BtuCD-F” (Nature Communications, 2017) are described below.

The target of test [1] is T1, BtuCD-F (BtuCD with BtuF D141C), ATPase site (Escherichia coli, UniProt P06611, C180S).
T1 construct: gene btuD
Particulars: 2 mM ATP, 10 mM MgCl2, pH 7.5, 30 °C; BtuCD WT with BtuF D141C.

Test [2] addresses BtuCDcys (cysteine mutant of the vitamin B12 ABC importer BtuCD: BtuC Q111C/W115L, cys-less BtuC and BtuD), reconstituted in liposomes (Escherichia coli) (UniProt P06609). Kind of test: single-molecule fluorescence intensity change (TIRF microscopy); BtuCDcys labelled with Alexa Fluor 555 in 100-nm proteoliposomes (empty lumen, no ATP) tethered to glass by biotin-streptavidin; unlabelled BtuF added to the outside; 50 mM KPi, 200 mM KCl, pH 7.5; room temperature.

Test [3] has the same target.

Consider `Nc1ncnc2c1ncn2[C@@H]1O[C@H](COP(=O)(O)OP(=O)(O)OP(=O)(O)O)[C@@H](O)[C@H]1O` [ATP], for which the “NADH-coupled PK/LDH ATPase assay in proteoliposomes” value in test [1] is reported as “ATPase rate of various BtuCD-F mutants with or without fluorescent label reconstituted in liposomes”.

In test [2], “BtuF D141C (periplasmic vitamin B12-binding protein, cys-less, signal peptide removed) (from UniProt P37028 23-266) (natural protein)” had a percent of right-side-out complexes with an increase in fluorescence upon addition of BtuF of 82% and a percent of traces with an increase in fluorescence upon addition of BtuF of 45%. In test [3], this molecule yielded a fraction of inside-out complexes that respond to ATP by a decrease of the Alexa Fluor 555 fluorescence of BtuCDcys (corrected for orientation; unlabelled BtuF in the lumen) of 18%; a fraction of liposomes in which the Alexa Fluor 555 fluorescence of BtuCDcys decreased upon addition of 2 mM ATP and 10 mM Mg2+ on the outside (unlabelled BtuF in the lumen; no events without BtuF) of 8%.
